Results taken from doi:10.1101/2025.10.04.680452 (bioRxiv, 2025).
Several values for one entry are separate records, joined by “and”; a condition that tells them apart may be missing. Identical values can stand only once.

Target: the molecule itself
Assay: cryo-EM structure

B1: human mitochondrial group I chaperonin mHsp60, wild type (natural protein)
chain: GSAKDVKFGADARALMLQGVDLLADAVAVTMGPKGRTVIIEQSWGSPKVTKDGVTVAKSIDLKDKYKNIGAKLVQDVANNTNEEAGDGTTTATVLARSIAKEGFEKISKGANPVEIRRGVMLAVDAVIAELKKQSKPVTTPEEIAQVATISANGDKEIGNIISDAMKKVGRKGVITVKDGKTLNDELEIIEGMKFDRGYISPYFINTSKGQKCEFQDAYVLLSEKKISSIQSIVPALEIANAHRKPLVIIAEDVDGEALSTLVLNRLKVGLQVVAVKAPGFGDNRKNQLKDMAIATGGAVFGEEGLTLNLEDVQPHDLGKVGEVIVTKDDAMLLKGKGDKAQIEKRIQEIIEQLDVTTSEYEKEKLNERLAKLSDGVAVLKVGGTSDVEVNEKKDRVTDALNATRAAVEEGIVLGGGCALLRCIPALDSLTPANEDQKIGIEIIKRTLKIPAMTIAKNAGVEGSLIVEKIMQSSSEVGYDAMAGDFVNMVEKGIIDPTKVVRTALLDAAGVASLLTTAEVVVTEIPKEEKDPGMGAMGGMGGGMGGGMF
For B1, the “stoichiometry N” value was 7 and 14.
